This passage reports interaction score results from article PMC10397247.

One assay deals with T1, 4H2760-AA.
T1 chain: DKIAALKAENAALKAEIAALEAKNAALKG
Nature of the assay: two-hybrid library CCmax.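 Note: natural log of median RNA to DNA barcode read ratio; higher means stronger binding.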 The following applies: mean of both orientations.

For another assay, the target named is T2, 4H446-AA.
T2 chain: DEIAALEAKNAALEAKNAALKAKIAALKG
Nature of the assay: two-hybrid library CCmax.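 Note: natural log of median RNA to DNA barcode read ratio; higher means stronger binding.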 Conditions: mean of both orientations.

The next assay deals with T3, 4H3449-AA.
T3 chain: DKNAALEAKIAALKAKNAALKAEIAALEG
Kind of assay: two-hybrid library CCmax.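 Note: natural log of median RNA to DNA barcode read ratio; higher means stronger binding.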 The following applies: mean of both orientations.

Another assay concerns the target T4, 4H3629-AA.
T4 chain: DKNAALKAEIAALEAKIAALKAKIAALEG
Kind of assay: two-hybrid library CCmax.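 Note: natural log of median RNA to DNA barcode read ratio; higher means stronger binding.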 The following applies: mean of both orientations.

The target of the next assay is T5, 4H2774-AA.
T5 chain: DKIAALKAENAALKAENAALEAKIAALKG
Nature of the assay: two-hybrid library CCmax.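 Note: natural log of median RNA to DNA barcode read ratio; higher means stronger binding.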 Conditions: mean of both orientations.

The next assay addresses T6, 4H2903-AA.
T6 chain: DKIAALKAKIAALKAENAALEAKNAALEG
Nature of the assay: two-hybrid library CCmax.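 Note: natural log of median RNA to DNA barcode read ratio; higher means stronger binding.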 Conditions: mean of both orientations.

For a further assay, the target named is T7, 4H432-AA.
T7 chain: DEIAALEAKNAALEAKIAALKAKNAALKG
Nature of the assay: two-hybrid library CCmax. The following applies: mean of both orientations.

Another assay deals with T8, 4H3619-AA.
T8 chain: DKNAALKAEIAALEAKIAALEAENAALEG
Kind of assay: two-hybrid library CCmax. Conditions: mean of both orientations.

In the next assay the target is T9, 4H483-AA.
T9 chain: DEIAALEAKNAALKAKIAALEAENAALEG
Kind of assay: two-hybrid library CCmax. Conditions: mean of both orientations.

The next assay has as its target T10, 4H380-AA.
T10 chain: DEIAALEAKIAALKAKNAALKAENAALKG
Kind of assay: two-hybrid library CCmax. Conditions: mean of both orientations.

In the next assay the target is T11, 4H63-AA.
T11 chain: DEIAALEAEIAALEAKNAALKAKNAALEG
Nature of the assay: two-hybrid library CCmax. The following applies: mean of both orientations.

The next assay deals with T12, 4H3049-AA.
T12 chain: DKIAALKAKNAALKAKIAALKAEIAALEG
Nature of the assay: two-hybrid library CCmax. Conditions: mean of both orientations.

In the next assay the target is T13, 4H2961-AA.
T13 chain: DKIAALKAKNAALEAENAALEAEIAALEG
Nature of the assay: two-hybrid library CCmax. The following applies: mean of both orientations.

A further assay has as its target T14, 4H3129-AA.
T14 chain: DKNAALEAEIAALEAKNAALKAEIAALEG
Kind of assay: two-hybrid library CCmax.

The next assay concerns the target T15, 4H3777-AA.
T15 chain: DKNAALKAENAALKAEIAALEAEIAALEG
Nature of the assay: two-hybrid library CCmax. The following applies: mean of both orientations.

The target in another assay is T16, 4H2699-AA.
T16 chain: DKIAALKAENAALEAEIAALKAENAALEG
Nature of the assay: two-hybrid library CCmax.

The target of another assay is T17, 4H2621-AA.
T17 chain: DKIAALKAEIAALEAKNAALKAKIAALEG
Nature of the assay: two-hybrid library CCmax.

In a further assay the target is T18, 4H2728-AA.
T18 chain: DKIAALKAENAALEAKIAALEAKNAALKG
Kind of assay: two-hybrid library CCmax. The following applies: mean of both orientations.

Another assay addresses T19, 4H3595-AA.
T19 chain: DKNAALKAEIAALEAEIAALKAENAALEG
Kind of assay: two-hybrid library CCmax. Conditions: mean of both orientations.

Another assay has as its target T20, 4H3915-AA.
T20 chain: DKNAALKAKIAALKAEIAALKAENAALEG
Kind of assay: two-hybrid library CCmax. The following applies: mean of both orientations.

A further assay addresses T21, 4H3974-AA.
T21 chain: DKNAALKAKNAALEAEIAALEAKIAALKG
Kind of assay: two-hybrid library CCmax. Conditions: mean of both orientations.

The next assay has as its target T22, 4H341-AA.
T22 chain: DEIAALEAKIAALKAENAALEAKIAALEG
Kind of assay: two-hybrid library CCmax. The following applies: mean of both orientations.

In the next assay the target is T23, 4H2947-AA.
T23 chain: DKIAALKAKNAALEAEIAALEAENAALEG
Kind of assay: two-hybrid library CCmax. The following applies: mean of both orientations.

The next assay deals with T24, 4H3094-AA.
T24 chain: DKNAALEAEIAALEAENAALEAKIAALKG
Nature of the assay: two-hybrid library CCmax. The following applies: mean of both orientations.

In a further assay the target is T25, 4H3782-AA.
T25 chain: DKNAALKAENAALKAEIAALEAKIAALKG
Kind of assay: two-hybrid library CCmax. Conditions: mean of both orientations.

The target in a further assay is T26, 4H3969-AA.
T26 chain: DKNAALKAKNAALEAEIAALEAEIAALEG
Kind of assay: two-hybrid library CCmax. Conditions: mean of both orientations.

A further assay has as its target T27, 4H3939-AA.
T27 chain: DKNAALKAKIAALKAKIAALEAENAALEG
Nature of the assay: two-hybrid library CCmax. The following applies: mean of both orientations.

Another assay addresses T28, 4H464-AA.
T28 chain: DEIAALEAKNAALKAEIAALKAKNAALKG
Nature of the assay: two-hybrid library CCmax. Conditions: mean of both orientations.

In the next assay the target is T29, 4H3414-AA.
T29 chain: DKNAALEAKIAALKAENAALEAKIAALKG
Nature of the assay: two-hybrid library CCmax. Conditions: mean of both orientations.

A further assay has as its target T30, 4H324-AA.
T30 chain: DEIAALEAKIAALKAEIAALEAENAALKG
Nature of the assay: two-hybrid library CCmax. The following applies: mean of both orientations.

Another assay deals with T31, 4H2580-AA.
T31 chain: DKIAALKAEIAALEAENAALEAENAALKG
Kind of assay: two-hybrid library CCmax.

The next assay concerns the target T32, 4H2604-AA.
T32 chain: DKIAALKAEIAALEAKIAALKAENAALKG
Kind of assay: two-hybrid library CCmax. Conditions: mean of both orientations.

The next assay addresses T33, 4H918-AA.
T33 chain: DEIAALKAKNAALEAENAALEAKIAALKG
Nature of the assay: two-hybrid library CCmax. The following applies: mean of both orientations.

A further assay addresses T34, 4H717-AA.
T34 chain: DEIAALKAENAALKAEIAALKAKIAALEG
Kind of assay: two-hybrid library CCmax. Conditions: mean of both orientations.

A further assay has as its target T35, 4H797-AA.
T35 chain: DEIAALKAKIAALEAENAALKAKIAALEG
Kind of assay: two-hybrid library CCmax.

For another assay, the target named is T36, 4H687-AA.
T36 chain: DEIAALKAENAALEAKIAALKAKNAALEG
Kind of assay: two-hybrid library CCmax.

The next assay deals with T37, 4H883-AA.
T37 chain: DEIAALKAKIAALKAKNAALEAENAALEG
Nature of the assay: two-hybrid library CCmax. Conditions: mean of both orientations.

In another assay the target is T38, 4H953-AA.
T38 chain: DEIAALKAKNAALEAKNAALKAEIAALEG
Kind of assay: two-hybrid library CCmax. The following applies: mean of both orientations.

The next assay has as its target T39, 4H967-AA.
T39 chain: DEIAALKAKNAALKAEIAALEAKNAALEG
Nature of the assay: two-hybrid library CCmax. The following applies: mean of both orientations.

The target of another assay is T40, 4H3638-bN.
T40 chain: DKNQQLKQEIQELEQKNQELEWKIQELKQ
Kind of assay: two-hybrid library CCNG1.

The next assay concerns the target T41, 4H3631-bN.
T41 chain: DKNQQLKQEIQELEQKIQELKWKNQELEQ
Nature of the assay: two-hybrid library CCNG1.

A further assay deals with T42, 4H619-bN.
T42 chain: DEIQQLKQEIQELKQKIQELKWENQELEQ
Kind of assay: two-hybrid library CCNG1.

The target of a further assay is T43, 4H3974-bN.
T43 chain: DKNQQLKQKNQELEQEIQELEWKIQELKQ
Kind of assay: two-hybrid library CCNG1.

A further assay addresses T44, 4H3817-bN.
T44 chain: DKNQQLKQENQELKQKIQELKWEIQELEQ
Nature of the assay: two-hybrid library CCNG1.

A further assay has as its target T45, 4H584-bN.
T45 chain: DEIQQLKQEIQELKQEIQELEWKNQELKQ
Kind of assay: two-hybrid library CCNG1.

A further assay concerns the target T46, 4H906-bN.
T46 chain: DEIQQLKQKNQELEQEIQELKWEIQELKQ
Nature of the assay: two-hybrid library CCNG1.

For another assay, the target named is T47, 4H570-bN.
T47 chain: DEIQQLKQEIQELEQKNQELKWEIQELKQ
Kind of assay: two-hybrid library CCNG1.

The target in the next assay is T48, 4H850-bN.
T48 chain: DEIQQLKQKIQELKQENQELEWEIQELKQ
Kind of assay: two-hybrid library CCNG1.

The next assay addresses T49, 4H3414-bN.
T49 chain: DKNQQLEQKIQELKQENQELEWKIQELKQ
Kind of assay: two-hybrid library CCNG1.

Where two headings read alike, the source gives them in different places.

Turning to DKIAALKAEIAALEAKNAALKAKIAALEG [4H2621-AA], the interaction score with 4H2760-AA is -0.432; with 4H446-AA, -1.41; with 4H3449-AA, -0.832; in the assay with 4H3629-AA it was 0.71; with 4H2774-AA, -0.116; with 4H2903-AA it was 1.71. Further, the interaction score was -1.5 with 4H432-AA; 0.162 with 4H3619-AA; -1.55 in the assay with 4H483-AA; -0.998 in the assay with 4H380-AA; -0.787 in the assay with 4H63-AA; 0.214 with 4H3049-AA. Moreover, the interaction score with 4H2961-AA is -0.217; in the assay with 4H3129-AA it was -1.64; with 4H3777-AA it was -1.64; with 4H2699-AA (mean of both orientations), -0.173; with 4H2621-AA it was 1.1; with 4H2728-AA it was 1.6. Also, the interaction score in the assay with 4H3595-AA was 0.312; with 4H3915-AA it was -1.18; in the assay with 4H3974-AA, -0.826; in the assay with 4H341-AA, 2.39; in the assay with 4H2947-AA it was -1.47; with 4H3094-AA, 1.09. Besides, the interaction score with 4H3782-AA was -1.63; with 4H3969-AA it was -1.35; with 4H3939-AA it was -0.531; with 4H464-AA, -1.44; in the assay with 4H3414-AA, 2.21; in the assay with 4H324-AA it was 1.33.
Turning to DKIAALKAEIAALEAENAALEAENAALKG [4H2580-AA], the interaction score with 4H2760-AA is -1.47; in the assay with 4H446-AA, -1.11; with 4H3449-AA, 0.308; in the assay with 4H3629-AA, -0.787; with 4H2774-AA, -1.28; with 4H2903-AA it was -0.221. The interaction score is -1.04 with 4H432-AA; -1.26 in the assay with 4H3619-AA; -1.33 in the assay with 4H483-AA; 1.77 in the assay with 4H380-AA; 0.964 with 4H63-AA; -0.107 with 4H3049-AA. In addition, the interaction score with 4H2961-AA is -1.82; in the assay with 4H3129-AA (mean of both orientations), -1.21; with 4H3777-AA, -1.49; in the assay with 4H2699-AA (mean of both orientations), -1.81; with 4H2621-AA (mean of both orientations), -0.357; with 4H2728-AA it was -1.69. The interaction score in the assay with 4H3595-AA is -1.29; with 4H3915-AA it was -0.741; with 4H2580-AA it was 0.179; with 4H3974-AA, -1.2; with 4H341-AA it was 0.477; with 4H2947-AA, -1.82. In addition, the interaction score was -1.36 in the assay with 4H3094-AA; -1.52 with 4H3782-AA; -1.28 with 4H3969-AA; -0.303 with 4H3939-AA; -0.738 with 4H464-AA; -1.09 with 4H3414-AA. Besides, the interaction score amounted to 1.93 with 4H324-AA and 1.41 in the assay with 4H2604-AA.
In the case of DEIAALKAENAALEAKIAALKAKNAALEG [4H687-AA], the interaction score is -0.666 with 4H918-AA; -0.487 with 4H717-AA; -1.46 with 4H797-AA; -1.1 in the assay with 4H687-AA; -1.77 with 4H883-AA; -1.39 in the assay with 4H953-AA. The interaction score in the assay with 4H967-AA came to 1.97.
For the molecule DKIAALKAENAALEAEIAALKAENAALEG [4H2699-AA], the interaction score with 4H446-AA was -1.2; with 4H3629-AA, -0.9; with 4H2774-AA it was -1.26; in the assay with 4H2903-AA, -1.69; with 4H483-AA, 0.687; with 4H380-AA, -1.08. In addition, the interaction score with 4H63-AA was -1.27; in the assay with 4H3049-AA it was 0.526; in the assay with 4H2961-AA, -1.89; with 4H3129-AA (mean of both orientations), 1.24; in the assay with 4H2699-AA it was -1.06; with 4H2728-AA it was -0.707. For the same molecule, the interaction score with 4H3595-AA was -1.96; with 4H341-AA, -1.58; in the assay with 4H3782-AA, -0.882; with 4H3969-AA, -1.41; with 4H3939-AA, -1.77; with 4H464-AA, 2.17. Besides, in the assay with 4H3414-AA, the interaction score is -0.748.
Regarding DKNQQLEQKIQELKQENQELEWKIQELKQ [4H3414-bN], the interaction score is -1.41 with 4H3638-bN; -1.25 with 4H3631-bN; -2.07 with 4H619-bN; -0.178 with 4H3974-bN; -0.982 with 4H3817-bN; -1.04 in the assay with 4H584-bN. In addition, the interaction score in the assay with 4H906-bN is -1.04; with 4H570-bN it was -0.223; in the assay with 4H850-bN, 0.132; with 4H3414-bN, -0.0983.
